The values that follow come from US20160228563A1 (USTAV ORGANICKE CHEMIE A BIOCHEMIE AKADEMIE VED CR V V I, published 2016).

Square brackets hold non-standard residues; d marks the D form. * marks the point of attachment. 1Nal = N[C@@H](Cc1cccc2ccccc12)C(=O)O; Stearoyl = CCCCCCCCCCCCCCCCCC(=O)*; Palmitoyl = CCCCCCCCCCCCCCCC(=O)*; Nle = CCCC[C@H](N)C(=O)O

Test [1] concerns the target T1, rat PrRP receptor (GPR10) in RC-4B/C rat pituitary cells (rat, UniProt Q64121 1-370).
T1 construct: whole, on cells; receptor as expressed by RC-4B/C cells (ATCC); also called rat receptor; rat RC-4B/C cell receptor
T1 sequence (looked up): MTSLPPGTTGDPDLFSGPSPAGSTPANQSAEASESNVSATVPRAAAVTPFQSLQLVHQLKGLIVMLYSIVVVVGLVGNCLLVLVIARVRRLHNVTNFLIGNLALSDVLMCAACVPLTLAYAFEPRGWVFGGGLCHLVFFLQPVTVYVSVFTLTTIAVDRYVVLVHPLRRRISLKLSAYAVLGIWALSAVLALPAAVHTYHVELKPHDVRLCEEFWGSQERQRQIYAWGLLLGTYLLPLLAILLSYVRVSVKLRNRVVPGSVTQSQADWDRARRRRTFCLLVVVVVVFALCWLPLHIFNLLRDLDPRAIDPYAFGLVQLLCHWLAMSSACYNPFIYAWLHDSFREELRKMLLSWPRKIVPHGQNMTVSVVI
Description: 125I-rat PrRP31 displacement, RC-4B/C cells. As to the method: (§1) Competitive binding experiments were performed according to Motulsky and Neubig (Motulsky, A., et al., “Analyzing radioligand binding data,” Curr Protoc Neurosci, Chapter 7, Unit 7.5, 2002). Binding experiments were conducted with rat pituitary cells, and with Chinese Hamster Ovary (CHO) cells as follows:
The rat pituitary cell line RC-4B/C (ATCC, Manassas, USA) was grown on 24-well plates which had their bottom coated with polyethyleneimine. The cells were grown to the optimal density of 300-450 thousand cells per well.
(§2) Plates were incubated for 60 minutes at room temperature. After incubation, the cells were solubilized in 0.1 mol/l solution of NaOH, and the radioactivity bound to the cells was counted using a γ-counter. The experiments were performed in duplicate, and repeated at least three times.

Test [2] addresses T2, human PrRP receptor GPR10 transfected in CHO cells (human, UniProt P49683 1-370).
T2 construct: whole, on cells; also called GPR10 human receptor; human GPR10 receptor
T2 sequence (looked up): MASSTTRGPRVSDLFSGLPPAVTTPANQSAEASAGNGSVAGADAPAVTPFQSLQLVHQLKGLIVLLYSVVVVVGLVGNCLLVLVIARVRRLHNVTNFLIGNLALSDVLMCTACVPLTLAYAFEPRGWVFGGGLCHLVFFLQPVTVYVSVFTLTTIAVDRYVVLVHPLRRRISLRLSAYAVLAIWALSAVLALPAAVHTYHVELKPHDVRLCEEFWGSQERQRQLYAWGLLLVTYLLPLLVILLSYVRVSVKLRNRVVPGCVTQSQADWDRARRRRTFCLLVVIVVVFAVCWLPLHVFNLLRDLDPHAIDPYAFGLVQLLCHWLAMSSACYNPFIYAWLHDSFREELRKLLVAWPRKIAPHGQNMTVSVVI
Description: 125I-human PrRP31 displacement, CHO-GPR10 cells. The method, then:
as §1
CHO cells transfected with human PrRP receptor GPR10 (Perkin Elmer, USA) were grown on 24-well plates coated with polyethyleneimine. The cells were grown to the optimal density of 40-80 thousand cells per well.
as §2

Regarding Palmitoyl-SRAHQHS[Nle]ETRTPDINPAWYTGRGIRPVGR[1Nal]-NH2 [PrRP analog no. 12], the “% of PrRP31” value in test [1] stood at 111%. As to Stearoyl-SRAHQHS[Nle]ETRTPDINPAWYTGRGIRPVGRF-NH2 [PrRP analog no. 9], the “% of PrRP31” value in test [2] stood at 7%.
